Target: T1, MBD3-GFP (methyl-CpG-binding domain protein 3 fused to GFP), O95983
T1 chain: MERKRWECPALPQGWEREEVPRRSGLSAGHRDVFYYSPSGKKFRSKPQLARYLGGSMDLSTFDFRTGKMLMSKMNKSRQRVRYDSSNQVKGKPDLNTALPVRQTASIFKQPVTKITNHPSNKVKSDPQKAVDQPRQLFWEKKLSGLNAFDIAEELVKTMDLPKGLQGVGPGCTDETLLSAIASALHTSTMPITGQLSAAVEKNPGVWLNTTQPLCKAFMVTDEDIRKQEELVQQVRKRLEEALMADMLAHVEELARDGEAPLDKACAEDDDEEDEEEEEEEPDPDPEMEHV
Assay: photon counting histogram
Conditions: remark: other sources report otherwise

B1: MBD3-GFP (methyl-CpG-binding domain protein 3 fused to GFP), O95983 1-291 (natural protein)
chain: MERKRWECPALPQGWEREEVPRRSGLSAGHRDVFYYSPSGKKFRSKPQLARYLGGSMDLSTFDFRTGKMLMSKMNKSRQRVRYDSSNQVKGKPDLNTALPVRQTASIFKQPVTKITNHPSNKVKSDPQKAVDQPRQLFWEKKLSGLNAFDIAEELVKTMDLPKGLQGVGPGCTDETLLSAIASALHTSTMPITGQLSAAVEKNPGVWLNTTQPLCKAFMVTDEDIRKQEELVQQVRKRLEEALMADMLAHVEELARDGEAPLDKACAEDDDEEDEEEEEEEPDPDPEMEHV
- dimer percentage (G1-phase): 84%
- dimer percentage (G2-phase): 16%
- dimer percentage (S-phase): 48%
